# Key:
# [1] = target: D3H44 Fab heavy chain L124R_S186K, C-terminal ABD2-His6 tag; test: LCCA (co-expression, SPR read-out of light chain tags), L1:L2 DNA 1:3 normalised to 1:1; competitor m10
# [2] = target: D3H44 Fab heavy chain L124E_L143E_K145M, C-terminal ABD2-His6 tag; test: as above
# [3] = target: D3H44 Fab heavy chain L124E_L143E_K145T, C-terminal ABD2-His6 tag; test: as above
# [4] = target: D3H44 Fab heavy chain L124E_L143D_K145M, C-terminal ABD2-His6 tag; test: LCCA set 9196 (co-expression; SPR read-out of light-chain tags; L1:L2 DNA 1:3, normalized to 1:1); competing light chain m13
# [5] = target: D3H44 Fab heavy chain L124R_S186R, C-terminal ABD2-His6 tag; test: LCCA (co-expression, SPR read-out of light chain tags), L1:L2 DNA 1:3 normalised to 1:1; competitor m11
# [6] = target: D3H44 Fab heavy chain L124E_L143D_K145T, C-terminal ABD2-His6 tag; test: as above
# [7] = target: D3H44 Fab heavy chain L124E_L143D_K145M, C-terminal ABD2-His6 tag; test: as above
# [8] = target: D3H44 Fab heavy chain L124R_S186R, C-terminal ABD2-His6 tag; test: LCCA co-expression, SPR tag read-out; DNA 1:3 norm. to 1:1; competing light chain m8
# [9] = target: D3H44 Fab heavy chain L124E_L143E_K145M, C-terminal ABD2-His6 tag; test: as above
# [10] = target: D3H44 Fab heavy chain L124E_L143E_K145T, C-terminal ABD2-His6 tag; test: as above
# [11] = target: D3H44 Fab heavy chain L124E_L143D_K145M, C-terminal ABD2-His6 tag; test: LCCA set 9176 (co-expression; SPR read-out of light-chain tags; L1:L2 DNA 1:3, normalized to 1:1); competing light chain m10
# [12] = target: D3H44 Fab heavy chain L124E_L143D_K145T, C-terminal ABD2-His6 tag; test: LCCA set 9214 (co-expression; SPR read-out of light-chain tags; L1:L2 DNA 1:3, normalized to 1:1); competing light chain m10
# [13] = target: D3H44 Fab heavy chain L124R_S186K, C-terminal ABD2-His6 tag; test: LCCA set 9451 (co-expression; SPR read-out of light-chain tags; L1:L2 DNA 1:3, normalized to 1:1); competing light chain m10
# [14] = target: D3H44 Fab heavy chain L124E_L143E_K145M, C-terminal ABD2-His6 tag; test: LCCA set 9257 (co-expression; SPR read-out of light-chain tags; L1:L2 DNA 1:3, normalized to 1:1); competing light chain m10
# [15] = target: D3H44 Fab heavy chain L124R_S186R, C-terminal ABD2-His6 tag; test: LCCA set 9505 (co-expression; SPR read-out of light-chain tags; L1:L2 DNA 1:3, normalized to 1:1); competing light chain m10
# [16] = target: D3H44 Fab heavy chain L124R_S186K, C-terminal ABD2-His6 tag; test: LCCA set 9461 (co-expression; SPR read-out of light-chain tags; L1:L2 DNA 1:3, normalized to 1:1); competing light chain m13
# [17] = target: D3H44 Fab heavy chain L124E_L143D_K145M, C-terminal ABD2-His6 tag; test: LCCA set 9199 (co-expression; SPR read-out of light-chain tags; L1:L2 DNA 1:3, normalized to 1:1); competing light chain m13
# [18] = target: D3H44 Fab heavy chain L124R_S186K, C-terminal ABD2-His6 tag; test: LCCA set 9484 (co-expression; SPR read-out of light-chain tags; L1:L2 DNA 1:3, normalized to 1:1); competing light chain m13
# [19] = target: D3H44 Fab heavy chain L124R_S186R, C-terminal ABD2-His6 tag; test: LCCA (co-expression, SPR read-out of light chain tags), L1:L2 DNA 1:3 normalised to 1:1; competitor m10
# [20] = target: D3H44 Fab heavy chain L124R_S186R, C-terminal ABD2-His6 tag; test: LCCA set 9526 (co-expression; SPR read-out of light-chain tags; L1:L2 DNA 1:3, normalized to 1:1); competing light chain m11
# [21] = target: D3H44 Fab heavy chain L124E_L143E_K145M, C-terminal ABD2-His6 tag; test: LCCA set 9253 (co-expression; SPR read-out of light-chain tags; L1:L2 DNA 1:3, normalized to 1:1); competing light chain m11
# [22] = target: D3H44 Fab heavy chain L124R_S186K, C-terminal ABD2-His6 tag; test: LCCA set 9473 (co-expression; SPR read-out of light-chain tags; L1:L2 DNA 1:3, normalized to 1:1); competing light chain m10
# [23] = target: D3H44 Fab heavy chain L124R_S186K, C-terminal ABD2-His6 tag; test: LCCA (co-expression, SPR read-out of light chain tags), L1:L2 DNA 1:3 normalised to 1:1; competitor m11
# [24] = target: D3H44 Fab heavy chain L124R_S186K, C-terminal ABD2-His6 tag; test: LCCA co-expression, SPR tag read-out; DNA 1:3 norm. to 1:1; competing light chain m8
# [25] = target: D3H44 Fab heavy chain L124E_L143D_K145T, C-terminal ABD2-His6 tag; test: LCCA set 9217 (co-expression; SPR read-out of light-chain tags; L1:L2 DNA 1:3, normalized to 1:1); competing light chain m10
substance,measurement,setting,value
"D3H44 light chain Q124E_V133G_S176D_T178D_T180E, N-terminal HA or FLAG tag",H2L2:H2L1 normalized median ratio,[1],82%
same,H1L1:H1L2 normalized median ratio,[2],5%
same,H1L1:H1L2 normalized median ratio,[3],4%
same,H1L1:H1L2 normalized median ratio (H1L2 part),[4],12%
same,H2L2:H2L1 normalized median ratio,[5],94%
same,H1L1:H1L2 normalized median ratio,[6],14%
same,H1L1:H1L2 normalized median ratio,[7],12%
same,H2L2:H2L1 normalized median ratio (% (ratio normalized to 100)),[8],88
same,H1L1:H1L2 normalized median ratio (% (ratio normalized to 100)),[9],5
same,H1L1:H1L2 normalized median ratio (% (ratio normalized to 100)),[10],4
same,H1L1:H1L2 normalized median ratio (H1L2 part),[11],17%
same,H1L1:H1L2 normalized median ratio (H1L2 part),[12],15%
same,H2L2:H2L1 normalized median ratio (H2L2 part),[13],93%
same,H1L1:H1L2 normalized median ratio (H1L2 part),[14],16%
same,H2L2:H2L1 normalized median ratio (H2L2 part),[15],94%
same,H2L2:H2L1 normalized median ratio (H2L2 part),[16],89%
"D3H44 light chain V133G_S176D_T178D_T180E, N-terminal HA or FLAG tag",H1L1:H1L2 normalized median ratio (H1L2 part),[17],13%
same,H2L2:H2L1 normalized median ratio (H2L2 part),[18],92%
same,H2L2:H2L1 normalized median ratio,[19],80%
same,H1L1:H1L2 normalized median ratio,[3],4%
same,H2L2:H2L1 normalized median ratio (H2L2 part),[20],80%
same,H1L1:H1L2 normalized median ratio (H1L2 part),[21],5%
same,H2L2:H2L1 normalized median ratio (H2L2 part),[22],93%
same,H2L2:H2L1 normalized median ratio,[23],92%
same,H1L1:H1L2 normalized median ratio,[6],11%
same,H2L2:H2L1 normalized median ratio (% (ratio normalized to 100)),[24],90
same,H1L1:H1L2 normalized median ratio (% (ratio normalized to 100)),[9],5
same,H1L1:H1L2 normalized median ratio (% (ratio normalized to 100)),[10],4
same,H1L1:H1L2 normalized median ratio (H1L2 part),[25],18%

# From patent publication US11306156
